The results in this text go back to patent US7446182 (University of Texas, dated 2008).

The target in experiment [1] is T1, Bacillus anthracis protective antigen (PA), 83 kDa polypeptide (Bacillus anthracis, UniProt P13423 30-764). As to the kind of experiment: SPR, PA immobilized on CM5 chip.
Experiment [2] concerns the target T1, Bacillus anthracis protective antigen …. Kind of experiment: SPR.

T1 sequence (P13423 30-764 limits assumed): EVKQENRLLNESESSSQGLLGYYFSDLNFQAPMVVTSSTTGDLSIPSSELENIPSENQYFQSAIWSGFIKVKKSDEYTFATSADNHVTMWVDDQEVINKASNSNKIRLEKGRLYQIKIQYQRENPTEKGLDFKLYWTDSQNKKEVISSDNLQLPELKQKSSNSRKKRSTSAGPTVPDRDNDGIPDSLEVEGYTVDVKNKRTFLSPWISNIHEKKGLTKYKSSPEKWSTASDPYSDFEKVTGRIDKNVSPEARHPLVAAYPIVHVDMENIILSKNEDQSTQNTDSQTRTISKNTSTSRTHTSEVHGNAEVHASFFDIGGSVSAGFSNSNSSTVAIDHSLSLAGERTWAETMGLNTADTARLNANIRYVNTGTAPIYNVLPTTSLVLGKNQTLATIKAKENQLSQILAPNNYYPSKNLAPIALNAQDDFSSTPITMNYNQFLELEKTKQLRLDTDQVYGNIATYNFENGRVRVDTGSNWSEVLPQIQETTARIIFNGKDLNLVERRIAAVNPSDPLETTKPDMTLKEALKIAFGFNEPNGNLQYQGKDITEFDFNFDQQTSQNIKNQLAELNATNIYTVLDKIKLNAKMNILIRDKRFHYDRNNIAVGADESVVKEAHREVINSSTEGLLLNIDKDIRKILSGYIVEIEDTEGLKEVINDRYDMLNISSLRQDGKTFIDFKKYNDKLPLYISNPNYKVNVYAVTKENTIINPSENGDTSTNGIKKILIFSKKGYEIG

B1: 1H scFv (scFv)
scFv: DIQMTQTTSSLSASLGDRVTISCRASQDIRNYLNWYQQKPDGTVKLLIYYTSRLLPGVPSRFSGSGSGTDYSLTISNQEQEDIGTYFCQQGNTLPWTGFFFTKLEIRRGGGGSGGGGSGGGGSGGGGSEVQLQQSGPELVKPGASVKISCKIDSGYAFSSSWMNWVKQRFGQGLEWIGRIYPGDGDTNYNGKFKGKATLTADKSSSTAYMQLSSLTSVDSAVYFCARSGLLRYAMDYWGQGTSVTVSS
In experiment [1], B1 displayed a Kd of 240 pM, a koff of 0.00017 s⁻¹ and a kon of 720000 M⁻¹ s⁻¹. Further, in experiment [2], the Kd came to 250 pM and the “fold lower equilibrium dissociation constant than 14B7” value amounted to 48 fold.
